In paper PMC4529466, “Intradermal insulin infusion achieves faster insulin action than subcutaneous infusion for 3-day wear” (Drug Delivery and Translational Research, 2015):

Test: Postprandial serum insulin aspart pharmacokinetics after meal bolus, 3-day ID vs SC infusion
Assay type: in vivo, human (T1DM patients)
Conditions: for ΔAUCIns0−1: 0–1 h; for ΔAUCIns0−1 / ΔAUCIns0–1.5 / ΔAUCIns0–2 / ΔAUCIns0–4 / T50_max_falling / T50_max_rising / Tmax / ΔCmax: mean ± SD; for ΔAUCIns0–1.5: 0–1.5 h; for ΔAUCIns0–2: 0–2 h; for ΔAUCIns0–4: 0–4 h; for Intra-subject variability of Tmax: across all study days and breakfast and lunch meals
From the text: This was a single center, open-label, two-period crossover study, randomized by infusion order, in T1DM patients on continuous subcutaneous insulin infusion (CSII). The protocol was approved by an independent ethics committee (Ethikkommission der Ärztekammer Nordrhein, Düsseldorf, Germany), appropriate regulatory bodies (German Federal Institute for Drugs and Medical Devices (BfArM)), and conducted in compliance with good clinical practice (GCP), the Declaration of Helsinki, and applicable regulatory requirements.
The study was completed over a multi-week period consisting of three study visits: a screening visit (V1) and two interventional visits (V2 and V3). After establishing eligibility and enrollment, patients received treatment during two interventional visits: one SC and one ID basal/bolus infusion of insulin aspart (NovoRapid® U-100, Novo Nordisk, Copenhagen, Denmark) administered over 3 days in a randomized order.
For each dosing visit, patients arrived the evening prior to the first standardized meal to verify compliance with protocol criteria. An intravenous catheter was inserted into a peripheral vein of the arm for manual blood sampling. Infusion sets, ID (34 G × 1.5 mm length stainless steel microneedle catheter set, BD Technologies, Research Triangle Park, NC) or SC (25 G × 6 mm length soft cannula, Quick-Set, Medtronic Minimed, Northridge, CA), were connected to an insulin infusion pump (Animas® Vibe™, Animas Corporation, West Chester, PA) and primed according to the manufacturer’s instructions. Sets were placed into the patient’s abdomen (periumbilical, left or right) using a customized applicator for the ID set, or the manufacturer recommended inserter for the SC set (customized Sof-serter® and Quick-serter® respectively, both Medtronic Minimed, Northridge, CA). Due to the small adhesive surface on the microneedle catheter, a modified IV dressing (IV3000 1-Hand, Smith & Nephew, England) was used for additional securement over the catheter. A safety loop was used on all catheter lines as recommended by general insulin pump user guidance (Fig. 1c). The respective infusion sets provided all basal and bolus insulin delivery of insulin aspart for the duration of each 72-h study period. A fluid pressure transducer (BD-DTX™ Plus, Becton Dickinson, Franklin Lakes, NJ) was connected in-line between the pump reservoir and each infusion set to monitor infusion delivery pressure, with automated data capture via a commercial data logging system (LORD MicroStrain®, Williston, VT) to provide a secondary post hoc measure of delivery status. The pump/pressure monitoring system combination was contained in a waist pack for the duration of delivery due to its potentially cumbersome size.
After maintaining targeted blood glucose range during the preceding night, bolus insulin doses were administered via the respective infusion catheter prior to standardized breakfast and lunch test meals on each of the three treatment days. Each meal insulin bolus was calculated based on the patient’s insulin sensitivity and previous hours change in BG per sliding scale then delivered immediately prior to breakfast (t = 0 min) and lunch (t = 360 min) consumption. Breakfast was a high glycemic index (60 g carbohydrates) solid meal, and lunch was a mixed meal based on the individual’s calculated daily energy intake and equivalent in caloric composition by day. Breakfast and lunch meals were consumed within 15 min followed by serial blood sampling with BG monitoring for a period of 6 and 4 h, respectively. Patients were asked to remain sedentary for 2 h after meals. Identical study procedures were utilized for the remaining dosing visit days (Fig. 2).
To assess insulin absorption kinetics and glycemic response, blood samples for measurements of insulin aspart and blood glucose in serum were drawn at predefined time points throughout dosing visits. Serial samples for safety BG determination, but not PK analysis, were obtained at a minimum every 2 h. […]

[1] = ID infusion, Day 1, across meals
[2] = ID infusion, Day 2, across meals
[3] = ID infusion, Day 3, across meals
[4] = ID infusion, Days 1–3 combined, across meals, n = 141–156
[5] = SC infusion, Day 1, across meals
[6] = SC infusion, Day 2, across meals
[7] = SC infusion, Day 3, across meals
[8] = SC infusion, Days 1–3 combined, across meals, n = 141–156

insulin aspart
reduction of Tmax compared to the respective SC delivery (ID bolus vs SC): greater than 40% | decrease of T50_max_falling, ID vs SC (ID bolus vs SC, p < 0.0001): ~25% | decrease of T50_max_rising, ID vs SC (ID bolus vs SC, p < 0.0001): ~ 50% | ΔAUCIns0−1 [1]: 39.5 ± 31.4 mU*h/L | ΔAUCIns0−1 [2]: 43.7 ± 36 mU*h/L | ΔAUCIns0−1 [3]: 44.8 ± 37.4 mU*h/L | ΔAUCIns0−1 [4]: 42.5 ± 34.7 mU*h/L | ΔAUCIns0–1.5 [1]: 56.6 ± 46.4 mU*h/L | ΔAUCIns0–1.5 [2]: 61.6 ± 54.0 mU*h/L | ΔAUCIns0–1.5 [3]: 62.8 ± 55.6 mU*h/L | ΔAUCIns0–1.5 [4]: 60.2 ± 51.6 mU*h/L | ΔAUCIns0–2 [1]: 68.5 ± 59.0 mU*h/L | ΔAUCIns0–2 [2]: 74.0 ± 67.8 mU*h/L | ΔAUCIns0–2 [3]: 75.7 ± 71.2 mU*h/L | ΔAUCIns0–2 [4]: 72.5 ± 65.5 mU*h/L | ΔAUCIns0–4 [1]: 86.9 ± 85.8 mU*h/L | ΔAUCIns0–4 [2]: 92.3 ± 94.5 mU*h/L | ΔAUCIns0–4 [3]: 94.4 ± 103 mU*h/L | ΔAUCIns0–4 [4]: 91.0 ± 93.5 mU*h/L | T50_max_falling [1]: 108 ± 39.2 min | T50_max_rising [1]: 5.7 ± 2.2 min | Tmax [1]: 27.6 ± 13.9 min | ΔCmax [1]: 54.5 ± 42.1 mU/L | T50_max_falling [2]: 106 ± 32.6 min | T50_max_rising [2]: 5.8 ± 2.6 min | Tmax [2]: 29.1 ± 13.3 min | ΔCmax [2]: 58.6 ± 47.0 mU/L | T50_max_falling [3]: 107 ± 36.7 min | T50_max_rising [3]: 6.4 ± 2.3 min | Tmax [3]: 29.1 ± 12.5 min | ΔCmax [3]: 61.2 ± 51.5 mU/L | ΔCmax (ID infusion, Days 1–3 combined, across meals, baseline corrected, n = 141–156): 57.9 ± 46.5 mU/L | T50_max_falling [4]: 107 ± 36.1 min | T50_max_rising [4]: 6.0 ± 2.4 min | Tmax [4]: 28.5 ± 13.2 min | Intra-subject variability of Tmax (ID): 29.6 %CV | intra-subject Tmax variability measured by %CV (ID, across meals and days): 30% | ΔAUCIns0−1 [5]: 29.9 ± 25.3 mU*h/L | ΔAUCIns0−1 [6]: 30.6 ± 21.1 mU*h/L | ΔAUCIns0−1 [7]: 33.6 ± 25.7 mU*h/L | ΔAUCIns0−1 [8]: 31.3 ± 24 mU*h/L | ΔAUCIns0–1.5 [5]: 45.9 ± 38.9 mU*h/L | ΔAUCIns0–1.5 [6]: 48.7 ± 35.9 mU*h/L | ΔAUCIns0–1.5 [7]: 52.8 ± 42.5 mU*h/L | ΔAUCIns0–1.5 [8]: 49.0 ± 39.0 mU*h/L | ΔAUCIns0–2 [5]: 57.8 ± 50.9 mU*h/L | ΔAUCIns0–2 [6]: 62.6 ± 49.6 mU*h/L | ΔAUCIns0–2 [7]: 66.7 ± 57.0 mU*h/L | ΔAUCIns0–2 [8]: 62.2 ± 52.3 mU*h/L | ΔAUCIns0–4 [5]: 77.4 ± 76.2 mU*h/L | ΔAUCIns0–4 [6]: 85.7 ± 82.3 mU*h/L | ΔAUCIns0–4 [7]: 87.7 ± 86.9 mU*h/L | ΔAUCIns0–4 [8]: 83.4 ± 81.3 mU*h/L | T50_max_falling [5]: 135 ± 51.1 min | T50_max_rising [5]: 13.2 ± 7.9 min | Tmax [5]: 46.0 ± 28.4 min | ΔCmax [5]: 47.4 ± 37.5 mU/L | T50_max_falling [6]: 143 ± 44.1 min | T50_max_rising [6]: 12.0 ± 9.5 min | Tmax [6]: 50.1 ± 19.7 min | ΔCmax [6]: 47.2 ± 34.8 mU/L | T50_max_falling [7]: 136 ± 39.5 min | T50_max_rising [7]: 11.2 ± 5.0 min | Tmax [7]: 47.1 ± 18.3 min | ΔCmax [7]: 51.5 ± 40.8 mU/L | ΔCmax (SC infusion, Days 1–3 combined, across meals, baseline corrected, n = 141–156): 48.7 ± 37.6 mU/L | T50_max_falling [8]: 138 ± 45.1 min | T50_max_rising [8]: 12.2 ± 7.7 min | Tmax [8]: 47.7 ± 22.8 min | Intra-subject variability of Tmax (SC): 36.7 %CV | intra-subject Tmax variability measured by %CV (SC, across meals and days): 37% | Tmax shortening, ID vs SC (across days): ~ 19 min | time reduction of T50%maxfalling, ID vs SC (across days): ~31 min | time reduction of T50%maxrising, ID vs SC (across days): ~ 6 min | less intra-subject variability (%CV), ID compared to SC (across meals and days): ~ 7%
